In assay [1] the target is β-Arrestin1 (human (endogenous in Caco-2 and HCT116)) (UniProt P49407). In words: proximity ligation; Duolink II red kit on fixed, permeabilised cells; PTEN-/- HCT116 cells transfected 24 hr with GFP-tagged EV or PTEN constructs, HCT116 cells as positive control; signal as AI units, n = 35 cells per condition in triplicate.
For assay [2] the target is unchanged. In words: co-IP; competition in cells: Caco-2 or HCT116 cells treated with 10 μM pep24 or 10 μM scrambled control peptide for 24 hr, then β-Arrestin1 immunoprecipitated and ARHGAP21 blotted.

β-Arrestin1 (human (endogenous in Caco-2 and HCT116)), sequence (P49407 whole entry): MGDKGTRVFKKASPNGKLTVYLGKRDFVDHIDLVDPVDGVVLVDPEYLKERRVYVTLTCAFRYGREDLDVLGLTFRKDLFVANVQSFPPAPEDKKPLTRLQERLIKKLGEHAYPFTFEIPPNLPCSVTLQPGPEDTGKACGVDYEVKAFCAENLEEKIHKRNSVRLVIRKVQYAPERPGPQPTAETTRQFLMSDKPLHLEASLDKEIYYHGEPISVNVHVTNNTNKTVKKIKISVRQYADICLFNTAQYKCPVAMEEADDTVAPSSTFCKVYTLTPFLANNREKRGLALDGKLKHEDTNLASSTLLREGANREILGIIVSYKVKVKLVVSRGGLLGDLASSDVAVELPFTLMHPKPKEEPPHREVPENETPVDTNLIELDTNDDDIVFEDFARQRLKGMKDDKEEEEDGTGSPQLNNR
cell permeant β-Arrestin1-ARHGAP21 binding disruptor peptide pep24, sequence (Q5T5U3 1331-1355): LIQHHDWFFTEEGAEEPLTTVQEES

The substance “GFP-labeled isolated PTEN C2 domain (domain or fragment)” returned a PLA interaction AI in assay [1] of 38.3 AI units. Consider “cell permeant β-Arrestin1-ARHGAP21 binding disruptor peptide pep24 (from UniProt Q5T5U3 1331-1355)”, for which, in assay [2], the fold change of β-Arrestin1-associated ARHGAP21 (ADU), pep24 vs control peptide, Caco-2 cells came to 0.63 fold change and the fold change of β-Arrestin1-associated ARHGAP21 (ADU), pep24 vs control peptide, HCT116 cells amounted to 0.39 fold change.

Values taken from paper PMC5576923.
